For one substance, FRET efficiency (E) with nHA followed by oHA results are on record in PMC3522304.

The target of the assay is hematopoietic form of CD44 (CD44-H) fused to CFP or YFP (human) (UniProt P16070). Nature of the assay: FRET or BRET.

In the case of “hematopoietic form of CD44 (CD44-H) fused to CFP or YFP (from UniProt P16070-12 21-361) (receptor)”, the FRET efficiency (E) with nHA followed by oHA is -15.3%.
